Assay [1] addresses Cy3-labeled mouse monoclonal antibody (Amersham) (mouse). Briefly: fluorescence imaging of 0.8 µm capture particles on epoxy-hydrogel slides; dilution series of the Cy3-labeled target, overnight incubation.
The target in assay [2] is mouse IgG labeled with Alexa Fluor 488 (Molecular Probes, Inc., A-11243 anti-biotin, mouse monoclonal 2F5, Alexa Fluor 488 conjugate) (mouse). Briefly: fluorescence imaging of film-immobilized capture particles; labeled target at 1 nM, 2 h.
Assay [3] shares this target. Put plainly: fluorescence imaging of film-immobilized capture particles; labeled target at 10 nM, 2 h.
Assay [4] has the same target. Briefly: fluorescence imaging of film-immobilized capture particles; labeled target at 100 nM, 2 h.
The target is the same in assay [5]. Put plainly: ratio of particle fluorescence to film background fluorescence; labeled target at 1 nM, 2 h.
The target is the same in assay [6]. Put plainly: ratio of particle fluorescence to film background fluorescence; labeled target at 10 nM, 2 h.
For assay [7] the target is unchanged. Put plainly: ratio of particle fluorescence to film background fluorescence; labeled target at 100 nM, 2 h.
Assay [8] has the same target. Briefly: net median particle fluorescence divided by that of the blank (0 nM) particles; labeled target at 1 nM, 2 h.
For assay [9] the target is unchanged. Briefly: net median particle fluorescence divided by that of the blank (0 nM) particles; labeled target at 10 nM, 2 h.
Assay [10] shares this target. Put plainly: net median particle fluorescence divided by that of the blank (0 nM) particles; labeled target at 100 nM, 2 h.
Assay [11] has the same target. Put plainly: fluorescence imaging of film-immobilized capture particles, film background subtracted; labeled target at 1 nM, 2 h.
For assay [12] the target is unchanged. Put plainly: fluorescence imaging of film-immobilized capture particles, film background subtracted; labeled target at 10 nM, 2 h.
Assay [13] shares this target. Put plainly: fluorescence imaging of film-immobilized capture particles, film background subtracted; labeled target at 100 nM, 2 h.

The values below come from patent publication US20030129296A1.

On to “0.8-µm-diameter particles coated with goat-anti-mouse antibody”, for which the detection level in [1] was determined as 1 pM.

As for “goat anti-mouse IgG(Fc) coated particles, 3.2 µm in diameter (Spherotech, Inc., MPFc-30-5) (antibody)”, the Particle Fluorescence Rate, Average in [2] worked out at 29.6 cps; in assay [3], 44.5 cps; in assay [4], 50.7 cps. Further, the figures for the Particle Fluorescence Rate, Maximum in assay [2], in [3] and in [4] were 62.6 cps, 66.2 cps and 74.1 cps, respectively. Moreover, the Particle Fluorescence Rate, Median in assay [2] came out at 28.1 cps; in [3], 46.4 cps; in [4], 50.8 cps. For the same substance, the Particle Fluorescence Rate, Minimum in assay [2] was 14.8 cps; in [3] it was 12 cps; in assay [4], 34.1 cps. Moreover, the MPF/FBF in assay [5] turned out to be 5.97; in assay [6], 7.45; in [7], 6.41. The MPF/MPF0 was 58.2 in assay [8], 99.5 in [9] and 107 in assay [10]. For the same substance, the Net Median Particle Fluorescence, MPF in assay [11] came to 23 cps; in [12], 40 cps; in assay [13], 43 cps.
